This is an account of results in paper doi:10.1101/2023.06.09.544317 (bioRxiv, 2023).

As a reminder, the stoichiometry N is a count of units in the complex or per binding partner.

The data set “cryo-EM structure” deals with the molecule itself. The data set can be described thus: cryo-EM structure.
The data set “mass photometry” concerns the molecule itself. The data set can be described thus: mass photometry.

B1: Q8U0N8, uncharacterized protein of unknown function from Pyrococcus furiosus (natural protein, UniProt Q8U0N8 1-392, looked up)
chain: MSESINNITKPKERRDFVVMAGMRKDGTIDFIKVYALNEKLAIEVLEAFLKENNIHPSDFIVIQRGYEDVKDKKAITTRSEEELSAMLGRLGLRLVSNGVLYTDGIDKLYQITAISRELFESLQKEKREIFEDVQEKITFNFSKVDLPEKYVKKLRLLELMEDTIIFNMAELEIPNLLKAIVEGTVLIPRFLEKEDLIIRIFDEELHEYRGSYFDKVLIKPPIIHWDFYLDSLEDFSFKKVEESIYIAPLFLRATGGFLILTEPPEDLVKTLLKLKKRGEVRTILEGKRITIPINFTLIVDTRHPERYAGLKFPIRINLPPLDDETFLKVLETNLGITPPTEIVRIFPPDYKTFLGVELIKNLFEKLKLTEKGKDEVSLLKEAATIITGGTP
In the case of B1, in “cryo-EM structure”, the “stoichiometry N” value amounted to 6.

B2: cysteine tRNA ligase from archaea (Q8U227) (enzyme, P. furiosus, UniProt Q8U227 1-477, looked up)
chain: MLKVYNTLTKQKEEFKPLREGEVKMYVCGPTVYDYPHLGHARTYIAFDVIRRYLEHKGYTVLMVMNFTDIDDKIIKRARETGEDPKELAERFIKIFLEDMEALKVKPADIYPRVTDHIDDIIEFIGKLKEKGYAYEGSDGIYFEVKKFPEYGKLSGVKIEDLQKGARVEPGEGKKNPEDFALWKKAKPGEPKWDSPWGEGRPGWHIECSVMSSKYLGESFDIHGGGNDLIFPHHENEIAQSEACFGHEWVKYWLHTGFVMVKGEKMSKSLGNFVTIRELLKRYEPEVIRFFVLQKHYRSPLEYTEEGLQHAKNNLQRLYNTLENIRVALRNAEISYTWGELEFKTYEIIREGKRKFYEAMDDDFNTAEALKAVFEVANAINKYLTEANKPKESILRKALEFFKIVSEVFGVFEDYFREETKEREESEKLIELLVEVRKQLRKEKRYELADMIREELKKLGIQLEDRGSETTWKRIIT
With B2, the “stoichiometry N” value in the data set “mass photometry” was found to be 2.
